Experimental data: patent US20120269826A1

Molecular target: CD3/TCR complex on mouse T cells (mouse) (UniProt P22646)
Test: cell-based or functional assay

Sequence of UniProt P22646 (P22646 22-189, chain 1 of 4): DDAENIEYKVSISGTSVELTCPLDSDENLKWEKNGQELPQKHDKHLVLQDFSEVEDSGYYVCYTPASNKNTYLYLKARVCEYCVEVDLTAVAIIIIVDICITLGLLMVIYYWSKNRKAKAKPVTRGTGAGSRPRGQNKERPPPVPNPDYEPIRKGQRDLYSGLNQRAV
Sequence of UniProt P22646 (P11942 23-182, chain 2 of 4, further chain): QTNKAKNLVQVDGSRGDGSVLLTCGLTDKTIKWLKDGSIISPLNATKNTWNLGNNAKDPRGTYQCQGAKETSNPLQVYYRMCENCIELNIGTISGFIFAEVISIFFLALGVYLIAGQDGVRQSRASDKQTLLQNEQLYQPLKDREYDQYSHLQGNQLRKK
Sequence of UniProt P22646 (P04235 22-173, chain 3 of 4, further chain): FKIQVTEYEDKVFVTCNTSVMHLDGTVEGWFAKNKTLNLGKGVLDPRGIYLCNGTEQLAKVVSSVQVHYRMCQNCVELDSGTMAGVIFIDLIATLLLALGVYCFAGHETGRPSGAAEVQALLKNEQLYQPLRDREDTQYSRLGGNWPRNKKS
Sequence of UniProt P22646 (P24161 22-164, chain 4 of 4, further chain): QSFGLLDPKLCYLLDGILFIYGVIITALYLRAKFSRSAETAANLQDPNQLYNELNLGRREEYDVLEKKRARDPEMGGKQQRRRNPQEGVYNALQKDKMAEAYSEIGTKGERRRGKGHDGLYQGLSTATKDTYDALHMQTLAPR

CD3/TCR-complex expression 24 hr after dose 4, 5 µg dose, Study A (% of baseline): 50
CD3/TCR-complex expression 24 hr after dose 4, 25 µg dose, Study A (% of baseline): 12
percentage of CD3/TCR-complex modulation after the fourth dose, 1 µg (4×/72 hr) dose regimen, BALB/c mice: 19.7%
percentage of CD3/TCR-complex modulation after the fourth dose, 2 µg (4×/72 hr) dose regimen, BALB/c mice: 30.3%
Substance: anti-CD3 mAb F(ab′)2 (hamster anti-mouse CD3 mAb, clone 145-2C11)
